Here are results for one protein from publication PMC12513983, “Backbone and sidechain ^1H, ^15N and ^13C resonance assignments of a multidrug efflux membrane protein using solution and solid-state NMR” (Biomolecular Nmr Assignments, 2025).

The series deals with the molecule itself. Kind of series: solid-state NMR (magic-angle spinning, 13C-detected resonance assignment); S64V-EmrE in POPC proteoliposomes, 25:1 lipid/EmrE monomer, pH 5.8; 2D NCA shows separate peaks for chain A and chain B.

B1: S64V-EmrE (natural protein, E. coli, UniProt P23895 1-110, looked up)
chain: MNPYIYLGGAILAEVIGTTLMKFSEGFTRLWPSVGTIICYCASFWLLAQTLAYIPTGIAYAIWVGVGIVLISLLSWGFFGQRLDLPAIIGMMLICAGVLIINLLSRSTPH
notes: also called EmrE mutant S64V; EmrE S64V
In the case of B1, the binding result is on record as “binds”.
